Measurements reported in the nanobody polyreactivity screen of Harvey et al. (2022).

Experiment: yeast display, Sf9 membrane polyspecificity reagent, FACS + sequencing; frameworks hold sequencing errors
How it was run: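 After 36–48 hours of galactose induction, yeast (Saccharomyces cerevisiae BJ5465) displaying a synthetic nanobody library were stained at 4 °C for 1 hour with 10% biotinylated, detergent-solubilized Sf9 membrane reagent. Streptavidin microbeads enriched the stained cells before FACS sorting into low and high (top ~1%) gates on anti-HA and streptavidin fluorescence. Each clone's polyreactivity label reflects its gate of origin.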

Sequence | polyreactivity (PSR sort gate)
QVQLVESGGGLVQAGGSLRLSCAASGSTSYRYAMGWYRQAPGKERELVAGITRSGGSTYYADSVKGRFTISRDNAKNTVYLQMNSLKPEDTAVYYCAAYYSRQYVGYGYWGQGTQVTVSS | high polyreactivity
QVQLVQAGGGLVQAGGILRLSCAASGRIFRLYTMGWYRQAPGKERELVAAINSSGGNTYYADSVKGRFTISRDNAKNNVNLQMNSLKPEDTAVYYCAAGWSYPVRNIYYDWGQGTQVTVSS | high polyreactivity
QVQLVESGGGLVQAGGSLRLSCAASGSIFWVYAMGWYRQAPGKERELVAAISNRGGSTYYSDSVKGRFTISRDNAKITVYLQMNSLKPEDTAVYYCAAVVAHHYYWGQGTQVTVSS | high polyreactivity
QVQLVESGGGLVQAGGSLRLSCAASGFTFVGNAMGWYRQAPGKERELVAAIRWSSGSTYYADSVKGRFTISRDNAKNTVYLQMNSLKPEDTAVYYCNAVYSVFYEYDYCGQGTQVTVSS | low polyreactivity
QVQLVESGGGLVQAGGSLRLSCAASGFIFWYYAMGWYRQAPGKERELVAAISSRGGSTYYADSVKGRFTISRDNAKNTVYLQMNSLKPEDTAVYYCAATGYTGYSRYYYWGQGTQVTVSS | high polyreactivity
QVQLVESGGGLVQAGGSLRLTCAASGSIFTYYVRGWYRQAPGKEMELVARISRRGGSTYYADSVKGRFTISRDNAKNTVYLQMNSLKPEDTAFYYCNRVFYYDRDNYDYWGQGTQVTVSS | high polyreactivity
QVQLVDSGGALVQAGGSLRLSCAASGSTFVVNAIGWYRQAPGKERELVAAIAGGGSTNYADSVKGRFTISRDNAKNTVYLQMNSLKPEDTAVYYCAVDGVEFSSYGYWGQGTQVTVSS | low polyreactivity
QVQLVESGGGLVQAGGSLRLSCAASGIIFSTYAMGWYRQAPGKERELVAAISYGGGSTYYADSVKGRFTISRDNEKNTVYLQMNSLKPEDTAVYYCAADSYRAYYYWGQGTQVTVSS | high polyreactivity
QVQLVESGGGLVQAGGSLRLSCAASGSIFYPYAMGWYRQAPGKERELVAAIRNGGSTYYADSVKGRFTISRDNAKNTVYLQMNSLKPEDTAVYYCAASVRRRHPFEYWGQGTQVTVSS | high polyreactivity
QVQLVESGGGLVQAGGSLRLSCAASGIIFYRYTMGWYRQAPGKERELVAAITSGGDTNYADSVKGRFTISRDNAKNTVYLQMNSLKPEDTAVYYCNADWWWYLYLYDYWGQGTQVTVSS | high polyreactivity
QVQLVESGGGLVQAGGSLRLSCAASGSIFPSYAMGWYRQAPGKERELVATISGSGTRTYYADSVKGRFTISRDNAKYTFYLQMNSLKPEDTAVYYCAAETHVESGSRDFYTEDYWGQGTQVTVSS | low polyreactivity
QVQLVESGGGLVQAGGRLRLSCAASGFIFDSNTMGWYRQAPGKERELVAGITRRGGSTYYADSVKGRFTISRDNAKNSVYLQMNSLNPEDTAVYYCATAGTYTGGEGYWGQGTQVTVSS | high polyreactivity
QDQLVESCGGLVQAGGSLRLSCASSGIIFVNYAMGWYRQAPGKERELVAAITTSGGSTYYADSVKGRFTISRDNAKNTVYLQMNCLKPEDTAVYYCAKISSLFKHVVRYDYWGQGTQVTVSS | low polyreactivity
QVQLVESGGGLVQAGGSLRLSCAASGSTLYFNAMGWYRQAPGKERELVATITSGGSTYYADSVKGRFTISRDNAKNTVYFQMNSLKPEDTAVYYCNADFGSYATNGMTPLYDYWGQGTQVTVSS | high polyreactivity
QVQLVESGGGLVQAGGSLRLSCAASGRTFGWYAMGWYRQAPGKERELVASITQRGGRTYYADSVKGRFTISRDNAKNTVYLQMNSLKPEDTAVYYCAAKTSPGMYYWGQGTQVTVSS | high polyreactivity
QVQLVESGGGLVQAGGSLSLSCAASGLTIYLYAKGWYRQPPGNERELVAAISRSGGSTYYADSVKGRFTISRDNAKNTVYLQMNSLKPEDTAVYYCAAVSYYPEIRKYYYWGQGTQVTVSS | high polyreactivity
QFQLVESGGGLVQAGGSLRLSCAASGRIFGVNAMGWYRPAPGKERELVAAISYRGGHTYADSVKGRFTISRDNAKNTVYLQMNSLKPEDTAVYYCAARNRSSTGLGSRYGYWGQGTQVTVSS | high polyreactivity
QVQHVESGGGLVQAGGSLRLSCAASGRTFLKNAMGWYRHAPVKERELVAAITSGGSTNYADSVKGRFTISRDNAKNTVYIQMNSLKPEDTAVYYCNAPSYWYYPVLGSFLTFDYWGQGTQVTVSS | low polyreactivity
QVQLVESGGGLVQAGGSLRLSCAASGITFFFNAMGWYRQAPGKERELVAAITSGAGSTYYADSVKGRFTISRDNAKITVYLQMNSLKPEDTAVYYCASEWSYGGMDYWGQGTQVNVSS | low polyreactivity
QVQLVDSGRGLVQAGGSLRLSCAASGSIFYYNTMGWYRQAPVKERELVAAISSSDGSTYYADSVKGRFTISRDNAKNTVYLQMNSLKPEDTAVYYCNADLIYGEEYDYWGQGTQVTVSS | low polyreactivity
QVQIVESGGGLVQAGGSLRLSCADSGRIFYLYDMGWYRQAPGKERELVATISCSGGSTYYADSVMGRFTISRDNAKNTVYLQMNSLKPEDTALYYCAAVSVSSWYDYWGQGTQVTVSS | low polyreactivity
QVQLVESGGGLVQAGGSLRISCAASGRTFLVYTMGWYRQAPGKERELVAAISWSDGSTYYADSVKGRFTISRDNAKNTVYLQMNSLKPEDTAVYYCAARRTGYLYRYGYWGQGTQVTVSS | low polyreactivity

Sequence | polyreactivity (PSR sort gate)
QVQLVESGGGLVQAGGSLRLSCAASGFTFRENTMGWYRQAPGKERELVASISWSGGSTYYADSVKGRFTISRDNAKNTVYLQMNSLKPEDTAVYYCAATYAWLSKGYRGMDYWGQGTQVTVSS | low polyreactivity
QVQLVESGGGLLQAGGSLRLSCAASGFIFKYYAMGWYRQAPGKEREFVAGINWSGTSTYYADSVKGRFTISRDNAKNTVYLQMNSLKPEDTAVYYCAATAYRGRTSRYYYWGQGTQVTVSS | high polyreactivity
QVQLEESGGGLVQAGGSLRLSCAASGFTFGRYPLGWYRQAPGKERELVAAITRGSGGTYYADSVKGRFTISRDNAKNTVYLQMNSLKPEDTAVYYCNTASYRGYDYWGQGTQVTVSS | high polyreactivity
QVQLVESGGGLVQAGGSLRLSCAASGSIFPDNVMGWYRQATGKERELVAAISRTGGSTYYADSVKGRFTISRDNAKNTVYLQMNSLKPEDTAVYYCNAKYRVPYAVGGDYGYWGQGTQVTVSS | high polyreactivity
QVQLVESGGGLVQAGGSLRLSCAASGRIFPFNAMGWYRQAPGKERELVAVITWDGGSTYYADSVKGRFTISRDNAKNTVYLQMNSLKPEDTAVYYCAADIRRYYPGYEYWGQGTQVTVSS | low polyreactivity
QVQLVESGGGLVQAGGSLRFSCAASGSTFTRYAMGWYRQAPGKERELVAAISWSGGITYYADSVNGRFTISRDNAKNTVYLQMNSLKPEDTAVYYCAAKRRYTRGGYGVDYWGQGTQVTVSS | high polyreactivity
QVQIVESGGGLVQAGGSLRLSCAASGSIFQFYAMGWSRQAPGKERELVAVITTSGVSTYYADSVKGRFTISRDNAKYTVYLQMNSLKPEDTAVYYCAADDYYLAGDYWGQGTQVTVSS | low polyreactivity
QVQLVESGGGLVQAGGSLRLSCAASGIIFAQYAMGWYRQAPGKERELVAAISWSGGSTYYADSVKGRFTISRDNAKNTVYLQMNSLKPEDTAVYYCAADGYYGYYSQYEYLYYYWGQGTQVTVSS | high polyreactivity
QVQLEESGGGLVQAGGSLRLSCAASGRTFALYAMGWYRQAPGKERELVASISWRGGSTYYADSVKGRFTISRDNAKNTVYLQMNSLKPEDTAVYYCAADTWSYGPLNYRLEYWGQGTQVTVSS | low polyreactivity
QVQLVESGGGLVQAGGSLRLSCAASGSTFGFYAMGWYRQAPGTERELVAVISSGDSPYYADSVKGRFTISRDNAKNTVYLKMNSRKPEDTAVYYCAKDALVIDGGGGYDYWGQGTQVTVSS | low polyreactivity
QVQQQESGGGLVQEGGSLRLSCAASGNISPPADMGWYRQAPGKERELVASIGTGGTTNYADSVKGRFTISRDNAKNTVYLQMNSLKPDDTAVFYCAAVRYEYNPYDYWGQGTQVTVSS | low polyreactivity
QVQLVESGGGLVQAGGSLRLSCAASGSTFAVNAMGWYRQAPGKERELVAAITGSGGSTYYADSVKGRFTISRDNAKNTVYLQMNSLKPEDTAVYYCAAYRRYGYYYWGQGTQVTVSS | low polyreactivity
RVQLVQSGGGLVQAGGSLRLSCAASGRIFSYNAMGWYRQAPGKERELVAAITFSGGGTYYADSVKGRFTISRDNAKNTVYLQMNSLIPEDTAVYYCNKVSYGYSTYGYWGQGTQVTVSS | low polyreactivity
QVQLVESGGGLVQAGGSLSLSCAASGSIFRWYAMGWYRQAPGKERELVALISWRGGSTYADSVKGRFTISRDNAKNTVYLQMNSLKPEDTADYYCNARPGSSYWYDAQWGEYGYWGQGTQVTVSS | high polyreactivity
QVQLVESGGGLVQAGGSLRLSCAASGRTFLSNAMGWYRQAPGKERELVADITFRGGNTYYADSVKGRFTISRGNAKNTVYLQMNSLKPEDTAVYYCAVLGYGRLSRVRYGYWGQGTQVTVSS | high polyreactivity
QVQLVESGGGLVQAGGSLRLSCAASGFTLVKYVMGWYIQAPGKEREFVATIRRRGGNTYYADSVKGRFTISRDNAKNTVYLQMNSLKPEDTAVYYCAAKKRSDLRTGDMEYWGQGTQVTVSS | high polyreactivity
QVQLVESGGGLVQAGGSLRLSCAASGSTYIVYAMGWYRQAPGKERELVAAIRGRGGSTYYADSVKGRFTISRDNAKNTVYLQMNSLKPEVTAVYYCAARGISPLEMYYWGQGTQVTVSS | high polyreactivity
QVQLVESGGGLVQAGGSLRLSCAASGSTFAYYAMGWYRQAPGKERELVAAISVSGGRTYYADSVKGRFTISRDNAKNTVYLQMNSLKPEDTAVYYCAKRFIYGRYNYWGQGTQVTVSS | high polyreactivity
QVQRVETGGGLVQAGGSLRLSSAASGSTLPGNTMGWYRQAPGKERELVAAISKSGGTTYYADSVKGRFTISRDNAKNTVYLQMNCLKPEDTAVYYCAAKPWVWVYARYGKHPSYDYWGQGTQVTVSS | high polyreactivity
QVQLVESGGGLVQAGGSLRLSCAASGFIFETNAMGWYRQAPGKERELVAAISSRGGSTYYADSVKGRFTISRDNAKNTVYLQMNSLKPEDTAVYYCAAKLVVSYGQEYDYWGQGTHVTVSS | low polyreactivity
QVQLVESGGGLVQAGGSLRLTCAASGLTFERYAMGWYRQAPGKETELVAAISIRGGSTYYADSVKGRFTISRYNAKNTVYLQMNSLKPEVTAVYYCSADGRGREYDYWGQGTQVTVSS | low polyreactivity
